The results in this text go back to article PMC7241105.

The experiment concerns the target SARS-CoV-2 receptor binding domain (RBD) (SARS-CoV-2) (UniProt P0DTC2). The experiment in a line: BLI. A general note: BLI is a label-free optical method that tracks binding on a fibre tip over time.

For orientation: Kd means the equilibrium constant for the complex coming apart. The low end stands for higher affinity, the high end for lower affinity. With CV30 (antibody), the dissociation constant Kd is 3.6 nM.
